Measurements from US5885833.

Target: E2F1-DP1 heterodimer (E2F1 aa 87-1398 as printed) (Homo sapiens?) (UniProt Q01094+Q14186)
Assay: EMSA
[1] = complex not specified individually

E2F1-DP1 heterodimer (E2F1 aa 87-1398 as printed) (Homo sapiens?), sequence (Q01094 whole entry, chain 1 of 2, the tested form may be a part): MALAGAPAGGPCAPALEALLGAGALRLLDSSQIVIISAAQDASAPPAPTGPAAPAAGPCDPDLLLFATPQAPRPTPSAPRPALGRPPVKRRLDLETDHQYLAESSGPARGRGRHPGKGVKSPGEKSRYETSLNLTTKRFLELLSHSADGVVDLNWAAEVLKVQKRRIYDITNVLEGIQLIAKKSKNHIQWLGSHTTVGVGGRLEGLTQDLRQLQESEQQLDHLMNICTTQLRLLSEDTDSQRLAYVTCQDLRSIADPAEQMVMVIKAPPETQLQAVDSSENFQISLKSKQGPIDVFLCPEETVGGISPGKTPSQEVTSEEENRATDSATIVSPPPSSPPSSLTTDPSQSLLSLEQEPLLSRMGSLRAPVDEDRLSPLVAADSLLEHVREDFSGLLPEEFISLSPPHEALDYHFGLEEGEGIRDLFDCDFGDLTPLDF
E2F1-DP1 heterodimer (E2F1 aa 87-1398 as printed) (Homo sapiens?), sequence (Q14186 whole entry, chain 2 of 2, the tested form may be a part): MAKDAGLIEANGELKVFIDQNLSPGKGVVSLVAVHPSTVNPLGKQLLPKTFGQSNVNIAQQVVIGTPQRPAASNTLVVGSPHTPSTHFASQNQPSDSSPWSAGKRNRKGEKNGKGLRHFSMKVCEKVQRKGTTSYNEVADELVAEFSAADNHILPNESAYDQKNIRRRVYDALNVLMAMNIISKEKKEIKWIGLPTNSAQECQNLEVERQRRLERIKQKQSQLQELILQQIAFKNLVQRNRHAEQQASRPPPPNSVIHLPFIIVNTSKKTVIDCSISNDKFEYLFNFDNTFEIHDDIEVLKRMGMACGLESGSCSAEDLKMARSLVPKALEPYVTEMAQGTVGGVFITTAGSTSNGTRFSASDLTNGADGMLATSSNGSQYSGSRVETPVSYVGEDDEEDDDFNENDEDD

| Sequence | binding signal (% probe bound) [1] | binding signal (% probe bound) (22 C, 50 mM NaCl, pH 8.0) |
| --- | --- | --- |
| GATCCTCTCACCTGCTGCTAG (double strand) [control probe] | < 0.002 | – |
| GATCGACTAGTTTCGCGCCCTTTCTACTAG (double strand) [E2a adenovirus promoter probe] | – | 1 |
| GGCGCCGACGCACTTGGCTGGAGATAGGAAAGTGGTTCTGTG (double strand) [mutated B-myb probe] | < 0.01 | – |
